Assay results: the DeepSol protein solubility set

Assay: soluble on expression in E. coli; label from the status in PepcDB or PDB records

Row | Sequence | soluble on expression in E. coli
1 | MARVAIPSVGKDLSSMVSDRFARAEYFIIYDTESGNVEVVENTIADAHGTGPKVVQSLVSKGVEYLIASNVGRNAFETLKAAGVKVYRFEGGTVQEAIDAFSEGRLEELTTFTREG | soluble
2 | MARVTTGITSSHIPALGAAIQTGTSDNDYWGPVFKGYQPIRDWIKQPGNMPDVVILVYNDHASAFDMNIIPTFAIGCAETFKPADEGWGPRPVPDVKGHPDLAWHIAQSLILDEFDMTIMNQMDVDHGCTVPLSMIFGEPEEWPCKVIPFPVNVVTYPPPSGKRCFALGDSIRAAVESFPEDLNVHVWGTGGMSHQLQGPRAGLINKEFDLNFIDKLISDPEELSKMPHIQYLRESGSEGVELVMWLIMRGALPEKVRDLYTFYHIPASNTALGAMILQPEETAGTPLEPRKVMSGHSLAQA | soluble
3 | MASAAKGKILAVIGDEDTVVGFLLGGVGELNKARKPNYLIVDKQTTVQEIEEAFNGFCARDDIAIILINQHIAEMIRYAVDNHTQSIPAVLEIPSKEAPYDPSKDSILNRARGLFNPEDFR | soluble
4 | MASFCNSWKRKHNEAIKLSEEIDGMILERSSLAETSSYARGHASYMRRKITILANGVQTLKNLLAESQGKSISAKEMSRCKDMVEDLRSKAYQMASALDMLKFSNIGSLLGQDDIMSRVIDMDNQEIVGFQRTTMKGKLKGVMHLKREALAMNMELGLQTRLIDRLDHHVDVSASDVEELQRSIDTGVCMTLLLSVVVVVFGLSEFVKFGRRRILG | soluble
5 | MASFRSTLALVNSAKLSLSTRTMASHPLAGLLGKLNHVAIATPDLKKSSEFYKGLGAKVSEAVPQPEHGVYTVFVELPNSKIELLHPFGEKSPIQAFLNKNKDGGMHHICIEVRDIHEAVSAVKTKGIRTLGEKPKIGAHGKEVMFLHPKDCGGVLIELEQE | not soluble
6 | MASFTSPDIDEKLAILHREMASLRVECDRLLNKHLIVEHTLSQSCSGWPNGAADTSSAYNTGGESCRSVSVTPDGVFIPTTSNSQMIQSQPSPRVLRRTVKMASPAVQRRLVPQNLPTSSSSRPPTVLLPHDSPEQPSRPIHRMHQELPIPEDVVSMVSSNKTQRSIIRAPSAVFGALKGSSLRKLSISRNIQMTTKVNKEESDRKEKEAEEYAKRFRIPSYSVVLKEEKRKSSFRIPVPHYFRSSKAKSKVYQVDAPDEEIEEVIDEEKMAAKTDLGDTTVHYKWKVKRRCDGSRYIVKRPIRSQILKKREAQVYRERAPISTDDDAMSELKLGRYHTKEERKRILERENTKKMLKLQQKMMEKAHPSEQVIYQMSQQKLARQKDAMVMDEFVTTREVLSSRTRPDGIHGVVSVTTV | not soluble
7 | MASKSRILQLKGTGLKKVPDEIEPLADVLRNLELSENKIREIPIFIGQFSQLKQLHLANNCLEFLPDELGSMKKLEILNLAGNKLKALPDTIVGCTDLKTIDLSSNVFTVFPVAVIGCLQLDILNLNGNQIESLPDDISNLKVIELSLNQNRLSSLNPSNLAKTTRLRTLRLDENCLEKSEFTRDLLESSTISVMSYDGNRFQLKDFQDLPGYDAYQERFTATKRKI | not soluble
8 | MASMKKSTENESTNYQYKIQELRKLLKSLLLNYLELIGVLSINPDMYERKVENIRTILVNIHHLLNEYRPHQSRESLIMLLEEQLEYKRGEIREIEQVCKQVHDKLTS | soluble
9 | MASNFKKANMASSSQRKRMSPKPELTEEQKQEIREAFDLFDADGTGTIDVKELKVAMRALGFEPKKEEIKKMISEIDKEGTGKMNFGDFLTVMTQKMSEKDTKEEILKAFKLFDDDETGKISFKNLKRVAKELGENLTDEELQEMIDEADRDGDGEVSEQEFLRIMKKTSLY | soluble
10 | MASPAAGDVLIVGSGLVGRSWAMLFASGGFRVKLYDIEPRQITGALENIRKEMKSLQQSGSLKGSLSAEEQLSLISSCTNLAEAVEGVVHIQECVPENLDLKRKIFAQLDSIVDDRVVLSSSSSCLLPSKLFTGLAHVKQCIVAHPVNPPYYIPLVELVPHPETSPATVDRTHALMRKIGQSPVRVLKEIDGFVLNRLQYAIISEAWRLVEEGIVSPSDLDLVMSDGLGMRYAFIGPLETMHLNAEGMLSYSDRYSEGMKRVLKSFGSIPEFSGATVEKVNQAMCKKGPADPEHLAARREWRDECLKRELAKLKRQMQPQ | soluble
11 | MASPENVILVHEISKLKTKEELWNPYEWYQFMRDNHPVHYDDEQDVWNVFLYDDVNRVLSDYSLFSSRRERRQFAIPPLETRININSTDPPEHRNVRSIVSKAFTPRSLEQWKPRIQSIANELVKDIENCSEVDIVEQFAAPLPVTVISDLLGVPTTDRKKIKAWSDILFMPYSKEKFNDLDAEKGIALNEFKAYLLPIVQEKRYHLTDDIISDLIRAEYEGERLTDEEIVTFSLGLLAAGNETTTNLIINSFYCFLVDSPATYKEVREKPKLISKAVEEVLRYRFPVTLARRITEDTNIFGPLMKKDQMVVAWVSAANLDEKKFSQASKFNIHRIGNEKHLTFGKGPHFCLGAPLARLEAEIALTTFINAFEKIALSPSFNIEQCILENEQTLKFLPIRLKPQ | not soluble
12 | MASQGFSVYVGNVPYQGTEEEIGNYFAAVGHVNNVRIVYDRETGRPRGFAFVEFSEEAGAQRAVEQLNGVAFNGRNLRVNYANK | soluble
13 | MASSSATLSLCSTFSAHCNVNSRRSSTILCSLSKPSLNLAKPLTGFLSPSTASTSRTAFTVAPKFAESVVEAEPETTDIEAVVVSDVSEVTEEKAKREEIFAVIMVGGRQYIVFPGRYLYTQRLKDANVDDQIVLNKVLLVGTKTHTYIGKPVVTNATVHAVVESQGLNDKVVVFKYKPKKKYRRNIGHRQPNTRIRITGITGYEEYPASPNVAVGEVNLLEHHHHHH | not soluble
14 | MASSSSLSLSFPSSSLSRTWDYDVFPSFHGEDVRKAFLSQILKKEFGRKAINFFVDHEMERGEFIGPVLKQAIKGSKIALVLLSKNYASSWCCLDELVEIMKKESGQTVITIFYEVDPNEVKKQTGDFGKAFKETCQGKTEEKVQTWRKALEGVGLATIAGFHSSNWFVFFI | not soluble
15 | MASVPTHQSEKEKKNDELSTAILKDKVKPNRLIVDQSEQDDNSVIAVSQAKMDELGLFRGDAVILKGKKRKESVAIIVSDESCPNEKVRMNRVVRNNLRIRLGDVVSITPAPNLSYGTRIHVLPIDDTIEGLTGNLFDVFLKPYFLEAYRPLHKGDIFTVQAAMRTVEFKVVETEPAPACIVSPDTMIHYEGDPIKREEEEESMNDIGYDDLGGVRKQLAQIKEMVELPLRHPQLFKAIGIKPPRGILLFGPPGTGKTLIARAVANETGSFFFLINGPEVMSKMSGESESNLRKAFEECEKNQPAILFIDEIDAIAPKREKTNGEVERRIVSQLLTLMDGVKGRSNLVVIAATNRPNSIDGALRRFGRFDREIDIGIPDAVGRLEILRIHTKNMKLADDVDLEQIANECHGFVGADLASLCSEAALQQIREKMELIDLEDDQIDAEVLNSLAVTMENFRFAQGKSSPSALREAVVETPNTTWSDIGGLQNVKRELQELVQYPVEHPEKYLKFGMQPSRGVLFYGPPGCGKTLLAKAIANECQANFISIKGPELLTMWFGESEANVRDVFDKARAAAPCVLFFDELDSIAKARGGGAGGDGGGASDRVINQVLTEMDGMNAKKNVFIIGATNRPDIIDPAVLRPGRLDQLIYIPLPDEASRHQILKASLRKTPLSKDLDLTFLAKNTVGFSGADLTEICQRACKLAIRESIEKEIRIEKERQDRQARGEELMEDDAVDPVPEITRAHFEEAMKFARRSVTDNDIRKYEMFAQTLQQSRGFGNNFKFPGEQRGSDAPSAPVPAQDDDDLYN | soluble
